# Test results published in the RNAGym collection of RNA variant scans (doi:10.7554/elife.90254).
# B1: LINE1-full (parent)
# chain: UACGUAGGUGGUUUUCCCCUGAUAGUGCUAAGGGGGCCUGGAAGUUUGGACUGGGCAGAGCUCAACACAGCGUGGCAAAGUGGCUGUGGCUAGACUGCCUCUCUGGAUUCCUCGUCACUCAGCAGGGCAUCUCUGAGAGAAAUGCC
# Variants of: B1
# Test: self-cleavage, relative activity (ratio to wild type); higher = more cleavage; in vitro, sequencing; the parent is a self-cleaving ribozyme
row,Variant,self-cleavage
1,UACGUAGGUGGUUUUCCCCUGAUAGUGCUAAGGGGCCCUGGAAGUUUGGACUGGGCAGAGCUCAACACAGCGUGGCGAAGUGGCUGUGGCUAGACUGCCUCUCUGGAUUCCUCGUCACUCAGCAGGGCAUCUCUGAGAGAAAUGCC [G36C A77G],1.6
2,UACGUAGGUGGUUUUCCCCUGAUAGUGCUAAGGGGCCCUGGAAGUUUGGACUGGGCAGAGCUCAACACAGCGUGGCAAAGUGGCUGUGGCUAGGCUGCCUCUCUGGAUUCCUCGUCACUCAGCAGGGCAUCUCUGAGAGAAAUGCC [G36C A94G],0.32
3,UACGUAGGUGGUUUUCCCCUGAUAGUGCUAAGGGGCCCUGGAAGUUUGGACUGGGCAGAGCUCAACACAGCGUGGCAAAGUGGCUGUGGCUAGACUGCCUCUCUGGAUUCCUCGUCACUCGGCAGGGCAUCUCUGAGAGAAAUGCC [G36C A121G],1.39
4,UACGUAGGUGGUUUUCCCCUGAUAGUGCUAAGGGGCCCUGGAAGUUUGGACUGGGCAGAGCUCAACACAGCGUGGCAAAGUGGCUGUGGCUAGACUGCCUCUCUGGAUUCCUCGUCACUCAGCAGGGCAUCUCUGAGAGAGAUGCC [G36C A141G],1.36
5,UACGUAGGUGGUUUUCCCCUGAUAGUGCUAAGGGGCCCUGGAAGUUUGGACUGGGCAGAGCUCAACACAGGGUGGCAAAGUGGCUGUGGCUAGACUGCCUCUCUGGAUUCCUCGUCACUCAGCAGGGCAUCUCUGAGAGAAAUGCC [G36C C71G],0.15
6,UACGUAGGUGGUUUUCCCCUGAUAGUGCUAAGGGGCCCUGGAAGUUUGGACUGGGCAGAGCUCAACACAGCGUGGCAAAGUGGCUGUGGCUAGACUGCCUCUCUGGAUUCCUCGUCACUCAGCAGGGCAUCUCUGAGAGAAAUGCG [G36C C146G],1.21
7,UACGUAGGUGGUUUUCCCCUGAUAGUGCUAAGGGGCCCUGGAAGUUUGGACUGGGCAGAGCUCAACACAGCGUGGCAAAGUGGCUGUGGCUAGACUGCCUCUCUGGAUUCCUCGUCACUCAGCAGGGCAUCUCUGAGAGAAAUGCU [G36C C146U],1.29
8,UACGUAGGUGGUUUUCCCCUGAUAGUGCUAAGGGGCCCUGGAAGUUUGGACUGGGCAGAGCUCAACACAGCGUGGCAAAGUUGCUGUGGCUAGACUGCCUCUCUGGAUUCCUCGUCACUCAGCAGGGCAUCUCUGAGAGAAAUGCC [G36C G82U],1.65
9,UACGUAGGUGGUUUUCCCCUGAUAGUGCUAAGGGGCCCGGGAAGUUUGGACUGGGCAGAGCUCAACACAGCGUGGCAAAGUGGCUGUGGCUAGACUGCCUCUCUGGAUUCCUCGUCACUCAGCAGGGCAUCUCUGAGAGAAAUGCC [G36C U39G],0.76
10,UACGUAGGUGGUUUUCCCCUGAUAGUGCUAAGGGGCCCUGGAAGCUUGGACUGGGCAGAGCUCAACACAGCGUGGCAAAGUGGCUGUGGCUAGACUGCCUCUCUGGAUUCCUCGUCACUCAGCAGGGCAUCUCUGAGAGAAAUGCC [G36C U45C],1.05
11,UACGUAGGUGGUUUUCCCCUGAUAGUGCUAAGGGGCCCUGGAAGUUCGGACUGGGCAGAGCUCAACACAGCGUGGCAAAGUGGCUGUGGCUAGACUGCCUCUCUGGAUUCCUCGUCACUCAGCAGGGCAUCUCUGAGAGAAAUGCC [G36C U47C],0.92
12,UACGUAGGUGGUUUUCCCCUGAUAGUGCUAAGGGGCCCUGGAAGUUUGGACUGGGCAGAGCCCAACACAGCGUGGCAAAGUGGCUGUGGCUAGACUGCCUCUCUGGAUUCCUCGUCACUCAGCAGGGCAUCUCUGAGAGAAAUGCC [G36C U62C],0.05
13,UACGUAGGUGGUUUUCCCCUGAUAGUGCUAAGGGGCCCUGGAAGUUUGGACUGGGCAGAGCUCAACACAGCGUGGCAAAGUGGCCGUGGCUAGACUGCCUCUCUGGAUUCCUCGUCACUCAGCAGGGCAUCUCUGAGAGAAAUGCC [G36C U85C],0.16
14,UACGUAGGUGGUUUUCCCCUGAUAGUGCUAAGGGGCCCUGGAAGUUUGGACUGGGCAGAGCUCAACACAGCGUGGCAAAGUGGCUGAGGCUAGACUGCCUCUCUGGAUUCCUCGUCACUCAGCAGGGCAUCUCUGAGAGAAAUGCC [G36C U87A],0.14
15,UACGUAGGUGGUUUUCCCCUGAUAGUGCUAAGGGGCCCUGGAAGUUUGGACUGGGCAGAGCUCAACACAGCGUGGCAAAGUGGCUGUGGCCAGACUGCCUCUCUGGAUUCCUCGUCACUCAGCAGGGCAUCUCUGAGAGAAAUGCC [G36C U91C],0.51
16,UACGUAGGUGGUUUUCCCCUGAUAGUGCUAAGGGGCCCUGGAAGUUUGGACUGGGCAGAGCUCAACACAGCGUGGCAAAGUGGCUGUGGCUAGACCGCCUCUCUGGAUUCCUCGUCACUCAGCAGGGCAUCUCUGAGAGAAAUGCC [G36C U96C],0.17
17,UACGUAGGUGGUUUUCCCCUGAUAGUGCUAAGGGGCCCUGGAAGUUUGGACUGGGCAGAGCUCAACACAGCGUGGCAAAGUGGCUGUGGCUAGACUGCCUCUCAGGAUUCCUCGUCACUCAGCAGGGCAUCUCUGAGAGAAAUGCC [G36C U104A],1.43
18,UACGUAGGUGGUUUUCCCCUGAUAGUGCUAAGGGGCCCUGGAAGUUUGGACUGGGCAGAGCUCAACACAGCGUGGCAAAGUGGCUGUGGCUAGACUGCCUCUCUGGAUUCCUCGUCACUCAGCAGGGCAUCCCUGAGAGAAAUGCC [G36C U132C],1.27
19,UACGUAGGUGGUUUUCCCCUGAUAGUGCUAAGGGGCCCUGGAAGUUUGGACUGGGCAGAGCUCAACACAGCGUGGCAAAGUGGCUGUGGCUAGACUGCCUCUCUGGAUUCCUCGUCACUCAGCAGGGCAUCUCUGAGAGAAACGCC [G36C U143C],1.43
